These results are taken from patent US20130217027A1.

For assay [1], the target named is IS (2): peptide ARTKQTAR without the methylation modification conjugated to a 125 bp DNA strand (Control-IS). Nature of the assay: ChIP qPCR primer set H3_qPCR_short; ratio of H3K4me3-antibody ChIP over H3K36me3-antibody ChIP. (Real-time PCR tracks product formation cycle by cycle.)
The target is the same in assay [2]. The assay can be described thus: ChIP qPCR primer set H3_qPCR; ratio of H3K4me3-antibody ChIP over H3K36me3-antibody ChIP.
For assay [3] the target is unchanged. Nature of the assay: ChIP of spiked conjugate, qPCR primer set H3_qPCR, well A1.
Assay [4] addresses IS (1): peptide ARTK(me3)QTAR conjugated to a 125 bp DNA strand (H3K4me3-IS). The assay can be described thus: ChIP of spiked conjugate, qPCR primer set H3K4me3_qPCR, well C2.
For assay [5] the target is unchanged. The assay can be described thus: ChIP of spiked conjugate, qPCR primer set H3K4me3_qPCR_long, well G2.
Assay [6] shares this target. The assay can be described thus: ChIP with 100 fg of internal standard spiked after sonication, qPCR.
For assay [7] the target is unchanged. The assay can be described thus: ChIP of spiked conjugate, qPCR primer set H3K4me3_qPCR_short, well K1.
For assay [8] the target is unchanged. The assay can be described thus: ChIP qPCR primer set H3K4me3_qPCR_Vshort; ratio of H3K4me3-antibody ChIP over H3K36me3-antibody ChIP.
Assay [9] shares this target. Nature of the assay: ChIP qPCR primer set H3K4me3_qPCR; ratio of H3K4me3-antibody ChIP over H3K36me3-antibody ChIP.
For assay [10] the target is unchanged. Nature of the assay: ChIP of spiked conjugate, qPCR primer set H3K4me3_qPCR, well C1.
For assay [11], the target named is IS (2): peptide ARTKQTAR without the methylation modification conjugated to a 125 bp DNA strand (Control-IS). Nature of the assay: ChIP of spiked conjugate, qPCR primer set H3_qPCR_long, well E1.
In assay [12] the target is IS (1): peptide ARTK(me3)QTAR conjugated to a 125 bp DNA strand (H3K4me3-IS). The assay can be described thus: ChIP qPCR primer set H3K4me3_qPCR_Vshort; enrichment of H3K4me3-IS normalised to Control-IS.
Assay [13] concerns the target IS (2): peptide ARTKQTAR without the methylation modification conjugated to a 125 bp DNA strand (Control-IS). Nature of the assay: ChIP of spiked conjugate, qPCR primer set H3_qPCR, well A2.
For assay [14] the target is unchanged. The assay can be described thus: ChIP qPCR primer set H3_qPCR_long; ratio of H3K4me3-antibody ChIP over H3K36me3-antibody ChIP.
The target is the same in assay [15]. The assay can be described thus: ChIP of spiked conjugate, qPCR primer set H3_qPCR_short, well I2.
In assay [16] the target is IS (1): peptide ARTK(me3)QTAR conjugated to a 125 bp DNA strand (H3K4me3-IS). Nature of the assay: ChIP of spiked conjugate, qPCR primer set H3K4me3_qPCR_long, well G1.
For assay [17], the target named is IS (2): peptide ARTKQTAR without the methylation modification conjugated to a 125 bp DNA strand (Control-IS). Nature of the assay: ChIP of spiked conjugate, qPCR primer set H3_qPCR_long, well E2.
Assay [18] concerns the target IS (1): peptide ARTK(me3)QTAR conjugated to a 125 bp DNA strand (H3K4me3-IS). The assay can be described thus: ChIP with 10 fg of internal standard spiked after sonication, qPCR.
Assay [19] has the same target. The assay can be described thus: ChIP qPCR primer set H3K4me3_qPCR_short; enrichment of H3K4me3-IS normalised to Control-IS (H3_qPCR_short).
Assay [20] has the same target. Nature of the assay: ChIP of spiked conjugate, qPCR primer set H3K4me3_qPCR_Vshort, well M1.
Assay [21] shares this target. Nature of the assay: ChIP qPCR primer set H3K4me3_qPCR_short; ratio of H3K4me3-antibody ChIP over H3K36me3-antibody ChIP.
Assay [22] shares this target. Nature of the assay: ChIP qPCR primer set H3K4me3_qPCR_long; enrichment of H3K4me3-IS normalised to Control-IS (H3_qPCR_long).
Assay [23] shares this target. Nature of the assay: ChIP qPCR primer set H3K4me3_qPCR_long; ratio of H3K4me3-antibody ChIP over H3K36me3-antibody ChIP.
For assay [24], the target named is IS (2): peptide ARTKQTAR without the methylation modification conjugated to a 125 bp DNA strand (Control-IS). The assay can be described thus: ChIP of spiked conjugate, qPCR primer set H3_qPCR_short, well I1.
For assay [25], the target named is IS (1): peptide ARTK(me3)QTAR conjugated to a 125 bp DNA strand (H3K4me3-IS). The assay can be described thus: ChIP of spiked conjugate, qPCR primer set H3K4me3_qPCR_short, well K2.
The target is the same in assay [26]. Nature of the assay: ChIP qPCR primer set H3K4me3_qPCR; enrichment of H3K4me3-IS normalised to Control-IS (H3_qPCR).
Assay [27] has the same target. Nature of the assay: ChIP of spiked conjugate, qPCR primer set H3K4me3_qPCR_Vshort, well M2.
For assay [28] the target is unchanged. Nature of the assay: ChIP of spiked conjugate, qPCR primer set H3K4me3_qPCR, well C4.
In assay [29] the target is IS (2): peptide ARTKQTAR without the methylation modification conjugated to a 125 bp DNA strand (Control-IS). The assay can be described thus: ChIP of spiked conjugate, qPCR primer set H3_qPCR_long, well E4.
The target of assay [30] is IS (1): peptide ARTK(me3)QTAR conjugated to a 125 bp DNA strand (H3K4me3-IS). The assay can be described thus: ChIP of spiked conjugate, qPCR primer set H3K4me3_qPCR_short, well K3.
The target is the same in assay [31]. The assay can be described thus: ChIP of spiked conjugate, qPCR primer set H3K4me3_qPCR_long, well G3.
Assay [32] deals with IS (2): peptide ARTKQTAR without the methylation modification conjugated to a 125 bp DNA strand (Control-IS). The assay can be described thus: ChIP of spiked conjugate, qPCR primer set H3_qPCR, well A4.
The target in assay [33] is IS (1): peptide ARTK(me3)QTAR conjugated to a 125 bp DNA strand (H3K4me3-IS). The assay can be described thus: ChIP of spiked conjugate, qPCR primer set H3K4me3_qPCR, well C3.
Assay [34] concerns the target IS (2): peptide ARTKQTAR without the methylation modification conjugated to a 125 bp DNA strand (Control-IS). Nature of the assay: ChIP of spiked conjugate, qPCR primer set H3_qPCR_long, well E3.
Assay [35] shares this target. Nature of the assay: ChIP of spiked conjugate, qPCR primer set H3_qPCR_short, well I4.
Assay [36] concerns the target IS (1): peptide ARTK(me3)QTAR conjugated to a 125 bp DNA strand (H3K4me3-IS). The assay can be described thus: ChIP of spiked conjugate, qPCR primer set H3K4me3_qPCR_Vshort, well M4.
Assay [37] has as its target IS (2): peptide ARTKQTAR without the methylation modification conjugated to a 125 bp DNA strand (Control-IS). Nature of the assay: ChIP of spiked conjugate, qPCR primer set H3_qPCR, well A3.
The target of assay [38] is IS (1): peptide ARTK(me3)QTAR conjugated to a 125 bp DNA strand (H3K4me3-IS). The assay can be described thus: ChIP of spiked conjugate, qPCR primer set H3K4me3_qPCR_long, well G4.
Assay [39] addresses IS (2): peptide ARTKQTAR without the methylation modification conjugated to a 125 bp DNA strand (Control-IS). The assay can be described thus: ChIP of spiked conjugate, qPCR primer set H3_qPCR_short, well I3.
Assay [40] addresses IS (1): peptide ARTK(me3)QTAR conjugated to a 125 bp DNA strand (H3K4me3-IS). Nature of the assay: ChIP of spiked conjugate, qPCR primer set H3K4me3_qPCR_short, well K4.
Assay [41] has the same target. The assay can be described thus: ChIP of spiked conjugate, qPCR primer set H3K4me3_qPCR_Vshort, well M3.

With “antibody specific for H3K4me3 (Millipore, catalogue Number: 07-473, rabbit, polyclonal)”, the K4/K36 was 0.871 fold in assay [1]; 1.16 fold in assay [2]; 75.6 fold in [8]; 30.9 fold in assay [9]; 0.862 fold in [14]; 45.9 fold in assay [21]. Also, in assay [23], the K4/K36 was determined as 37.8 fold. The Cp (qPCR) came out at 20.4 in assay [3]; 15.2 in assay [4]; 15.6 in assay [5]; 14.2 in [7]; 14.7 in assay [10]; 20.4 in assay [11]. Further, the Cp (qPCR) was determined as 20.4 in assay [13]; 19.9 in [15]; 15.2 in assay [16]; 20.5 in assay [17]; 14 in assay [20]; 19.5 in assay [24]. Besides, the Cp (qPCR) was 14.9 in assay [25] and 14.4 in assay [27]. The qPCR cycle of enrichment worked out at 26 cycle in assay [6] and 30 cycle in assay [18]. Moreover, the (K4/K36)^K4-ChIP/(K4/K36)^K36-ChIP in [12] was 86.8 fold; in assay [19] it was 52.7 fold; in assay [22] it was 43.9 fold; in assay [26], 26.6 fold.
“non-relevant control antibody that should recognize H3K36me3 (Abcam, catalogue Number: ab9050, rabbit, polyclonal)”: the Cp (qPCR) was found to be 19.9 in assay [28]; 19.9 in assay [29]; 19.9 in assay [30]; 20.4 in [31]; 21 in assay [32]; 19.9 in assay [33]. Further, the Cp (qPCR) in [34] amounted to 20.6; in assay [35], 19.9; in [36], 20.9; in assay [37], 20.3; in assay [38] it was 20.9; in [39], 19.1. Further, the Cp (qPCR) came out at 20.2 in assay [40] and 20.1 in assay [41].
